Data from patent US20110201130A1.

Columns and labels:
[1] = target: human pro B-type natriuretic peptide (human); assay: sandwich CMIA, capture BNP 3-631-436 ms, proBNP spike 3436 pg/mL, read off hBNP curve
[2] = target: human pro B-type natriuretic peptide (human); assay: sandwich CMIA, capture 106.3AM1, proBNP spike 3436 pg/mL, read off hBNP curve
[3] = target: human pro B-type natriuretic peptide (human); assay: sandwich CMIA, capture BNP 3-631-436 ms, proBNP spike 6872 pg/mL, read off hBNP curve
[4] = target: human pro B-type natriuretic peptide (human); assay: sandwich CMIA, capture BNP 3-631-436 ms, proBNP spike 515 pg/mL, read off hBNP curve
[5] = target: human B-type natriuretic peptide (human); assay: sandwich CMIA, capture BNP 3-631-436 ms, hBNP 150 pg/mL (43.3 pM)
[6] = target: human B-type natriuretic peptide (human); assay: sandwich CMIA, capture BNP 3-631-436 ms, hBNP 1000 pg/mL (288.7 pM)
[7] = target: human B-type natriuretic peptide (human); assay: sandwich CMIA, capture 106.3 AM1, hBNP 0 pg/mL (blank)
[8] = target: human B-type natriuretic peptide (human); assay: sandwich CMIA, capture 106.3 AM1, hBNP 30 pg/mL (8.67 pM)
[9] = target: human pro B-type natriuretic peptide (human); assay: sandwich CMIA, capture 106.3AM1, proBNP spike 515 pg/mL, read off hBNP curve
[10] = target: human pro B-type natriuretic peptide (human); assay: sandwich CMIA, capture 106.3AM1, proBNP spike 103 pg/mL, read off hBNP curve
[11] = target: human pro B-type natriuretic peptide (human); assay: sandwich CMIA, capture BNP 3-631-436 ms, proBNP spike 103 pg/mL, read off hBNP curve
[12] = target: human pro B-type natriuretic peptide (human); assay: sandwich CMIA, capture BNP 3-631-436 ms, proBNP spike 1031 pg/mL, read off hBNP curve
[13] = target: human B-type natriuretic peptide (human); assay: sandwich CMIA, capture 106.3 AM1, hBNP 150 pg/mL (43.3 pM)
[14] = target: human B-type natriuretic peptide (human); assay: sandwich CMIA, capture BNP 3-631-436 ms, hBNP 30 pg/mL (8.67 pM)
[15] = target: human B-type natriuretic peptide (human); assay: sandwich CMIA, capture BNP 3-631-436 ms, hBNP 2000 pg/mL (577.4 pM)
[16] = target: human B-type natriuretic peptide (human); assay: sandwich CMIA, capture BNP 3-631-436 ms, hBNP 0 pg/mL (blank)
[17] = target: human B-type natriuretic peptide (human); assay: sandwich CMIA, capture 106.3 AM1, hBNP 1000 pg/mL (288.7 pM)
[18] = target: human B-type natriuretic peptide (human); assay: sandwich CMIA, capture 106.3 AM1, hBNP 300 pg/mL (86.6 pM)
[19] = target: human B-type natriuretic peptide (human); assay: sandwich CMIA, capture 106.3 AM1, hBNP 2000 pg/mL (577.4 pM)
[20] = target: human pro B-type natriuretic peptide (human); assay: sandwich CMIA, capture 106.3AM1, proBNP spike 1031 pg/mL, read off hBNP curve
[21] = target: human B-type natriuretic peptide (human); assay: sandwich CMIA, capture BNP 3-631-436 ms, hBNP 300 pg/mL (86.6 pM)
[22] = target: human pro B-type natriuretic peptide (human); assay: sandwich CMIA, capture 106.3AM1, proBNP spike 6872 pg/mL, read off hBNP curve

Chain of human pro B-type natriuretic peptide (human) (chain, as listed by the source): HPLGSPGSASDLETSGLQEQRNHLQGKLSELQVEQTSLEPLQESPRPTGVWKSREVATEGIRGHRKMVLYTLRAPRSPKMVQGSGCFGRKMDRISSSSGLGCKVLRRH
Chain of human B-type natriuretic peptide (human) (peptide, as listed by the source): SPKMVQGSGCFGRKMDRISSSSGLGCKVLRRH

Readback [1]: 482 pg/mL
Recovery [1]: 19.3%
Readback [2]: 1370 pg/mL
Recovery [2]: 39.7%
Readback [3]: 895 pg/mL
Recovery [3]: 17.9%
Readback [4]: 40.8 pg/mL
Recovery [4]: 10.9%
RLU [5]: 4690 RLU
RLU [6]: 83500 RLU
RLU [7]: 768 RLU
RLU [8]: 1030 RLU
Readback [9]: 190 pg/mL
Recovery [9]: 36.8%
Readback [10]: 117 pg/mL
Recovery [10]: 114%
Readback [11]: -5.3 pg/mL
Recovery [11]: -7%
Readback [12]: 111 pg/mL
Recovery [12]: 14.8%
RLU [13]: 3850 RLU
RLU [14]: 1340 RLU
RLU [15]: 270000 RLU
RLU [16]: 803 RLU
RLU [17]: 65500 RLU
RLU [18]: 8760 RLU
RLU [19]: 223000 RLU
Readback [20]: 456 pg/mL
Recovery [20]: 44.2%
RLU [21]: 11900 RLU
Readback [22]: 2830 pg/mL
Recovery [22]: 41.2%
Substance: monoclonal antibody BC203
